According to paper PMC9651861 (Science Advances, 2022):

Target: T1, Trimeric His-Tagged SARS-CoV-2 Spike Glycoprotein, labelled with Alexa Fluor 647 (SARS-CoV-2, original (Wuhan-Hu-1) strain, UniProt P0DTC2, Alexa Fluor 647 (N-hydroxysuccinimide ester), estimated 13:1 dye to protein)
T1 construct: also called full trimeric spike protein; spike protein
Assay: MST
Settings: both partners purified

B1: DesAb-HSA-P2 (VHH)
VHH: EVQLEESGGGLVQPGGSLRLSCAASGFNIKDTYIGWVRQAPGKGEEWVASIYPTSGYTRYADSVKGRFTISADTSKNTAYLQMNSLRAEDTAVYYCAAGSAQAGNAEEAEEEFDYWGQGTLVTVSS
  binding result: no binding (tested: 4 μM)
